Measured values: paper PMC3285539 (Nature, 2012)

Key:
Rpn1 = target: T1, Rpn1 (S. cerevisiae, UniProt P38764 1-993); experiment: cryo-EM structure
T1 sequence: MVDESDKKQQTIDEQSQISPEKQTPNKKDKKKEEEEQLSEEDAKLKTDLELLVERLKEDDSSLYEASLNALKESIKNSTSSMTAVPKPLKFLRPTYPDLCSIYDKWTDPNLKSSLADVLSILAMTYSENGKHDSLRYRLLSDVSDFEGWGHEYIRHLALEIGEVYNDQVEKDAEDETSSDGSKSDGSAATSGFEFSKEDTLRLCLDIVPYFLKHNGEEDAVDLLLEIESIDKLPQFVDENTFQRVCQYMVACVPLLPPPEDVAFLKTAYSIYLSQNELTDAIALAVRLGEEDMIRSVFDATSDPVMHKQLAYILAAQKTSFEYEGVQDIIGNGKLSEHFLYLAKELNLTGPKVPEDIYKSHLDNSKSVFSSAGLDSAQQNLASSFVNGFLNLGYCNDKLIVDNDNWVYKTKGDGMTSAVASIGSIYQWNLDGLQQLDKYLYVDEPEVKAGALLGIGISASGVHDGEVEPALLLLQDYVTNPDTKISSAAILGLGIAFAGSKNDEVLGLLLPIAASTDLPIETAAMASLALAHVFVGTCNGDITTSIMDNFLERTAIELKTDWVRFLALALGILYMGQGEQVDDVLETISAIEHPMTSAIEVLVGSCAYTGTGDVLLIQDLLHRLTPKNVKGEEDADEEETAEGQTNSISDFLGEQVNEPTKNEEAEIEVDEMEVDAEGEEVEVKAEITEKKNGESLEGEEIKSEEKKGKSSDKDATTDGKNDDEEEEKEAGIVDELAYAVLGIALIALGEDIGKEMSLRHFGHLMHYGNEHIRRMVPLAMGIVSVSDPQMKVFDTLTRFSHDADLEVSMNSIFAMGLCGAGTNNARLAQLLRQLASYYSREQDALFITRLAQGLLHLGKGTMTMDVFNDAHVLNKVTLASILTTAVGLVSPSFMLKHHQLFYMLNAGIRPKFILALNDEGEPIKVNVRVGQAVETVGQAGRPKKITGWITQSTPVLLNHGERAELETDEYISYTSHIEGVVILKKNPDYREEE

Rpt2 = Rpt2 (S. cerevisiae, UniProt P40327 1-437); experiment: cryo-EM structure
Sequence of Rpt2 (P40327 whole entry): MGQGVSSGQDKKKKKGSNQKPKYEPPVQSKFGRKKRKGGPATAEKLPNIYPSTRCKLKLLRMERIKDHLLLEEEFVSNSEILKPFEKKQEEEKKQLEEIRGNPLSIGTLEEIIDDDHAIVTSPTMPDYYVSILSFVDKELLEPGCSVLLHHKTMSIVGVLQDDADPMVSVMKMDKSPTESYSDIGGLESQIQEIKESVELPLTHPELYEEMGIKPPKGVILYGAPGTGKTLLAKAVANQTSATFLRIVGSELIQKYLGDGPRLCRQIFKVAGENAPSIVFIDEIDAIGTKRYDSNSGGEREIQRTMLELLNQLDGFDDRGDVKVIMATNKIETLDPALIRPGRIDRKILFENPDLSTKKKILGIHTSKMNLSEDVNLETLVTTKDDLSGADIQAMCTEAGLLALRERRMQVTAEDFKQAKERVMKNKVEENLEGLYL

binding result (Rpn1): binds | binding result (Rpt2): binds
B1: 20S core subunit α4 (natural protein)
chain: MSGYDRALSIFSPDGHIFQVEYALEAVKRGTCAVGVKGKNCVVLGCERRSTLKLQDTRITPSKVSKIDSHVVLSFSGLNADSRILIEKARVEAQSHRLTLEDPVTVEYLTRYVAGVQQRYTQSGGVRPFGVSTLIAGFDPRDDEPKLYQTEPSGIYSSWSAQTIGRNSKTVREFLEKNYDRKEPPATVEECVKLTVRSLLEVVQTGAKNIEITVVKPDSDIVALSSEEINQYVTQIEQEKQEQQEQDKKKKSNH
